Experimental findings from US20250263490A1 (VIB VZW, published 2025) are described below.

Assay [1] deals with T1, recombinant human domain 1-3His6 of the cation-independent mannose-6-phosphate receptor (human, UniProt P11717 41-467).
T1 construct: Biotinylated (NHS-PEG4-biotin) for BLI; Glycosylated; also called hDom1-3His6; hCI-M6PRD1-D3
The assay can be described thus: ELISA on coated antigen, 1st of 2 repeats. How it is done: FIGS. 4A-4B. Affinity of anti-CI-M6PR VHHs for recombinant human CI-M6PR Domain 1-3His₆ determined by ELISA. A & B. Measurements for each of the 11 anti-CI-M6PR VHHs in serial dilution binding to the coated human CI-M6PR Domain 1-3His₆ antigen. Detection was performed using an anti-VHH antibody coupled to HRP, and measured as the absorbance of the TMB substrate at 450 nm, correlating to the amount of bound VHH as plotted at the Y-axis. The Log₁₀ concentrations of the serially diluted VHHs were plotted at the X-axis. […] A & B represent replicates but using a different concentration of human CI-M6PR Domain 1-3His₆ (in (FIG. 4A): 0-0.75 μM and in (FIG. 4B): 0-1 μM).
We evaluated the affinity of the VHHs against the hDom₁₋₃His₆ using ELISA. Coated hDom₁₋₃His₆ was incubated with serially diluted VHH that was afterwards detected using an anti-VHH antibody, coupled to HRP.
On the technique in general: In an ELISA, binding on a coated surface is turned into a signal by an enzyme label.

In assay [2] the target is T1, recombinant human domain 1-3His6 of the …. The assay can be described thus: BLI exp 1, dissoc pH 5. How it is done:
(§1) For each of the 11 anti-CI-M6PR VHHs, a biolayer interferometry (BLI) experiment was performed in which the hDom₁₋₃His₆ was biotinylated and coupled to streptavidin biosensor tips. Afterwards, the tips were incubated with serially diluted VHHs during the association phase and dissociation was performed at pH 7.4. Similarly, dissociation was performed at pH 7.0, pH 6.0 and pH 5.0 as well after regeneration of the biosensor tips. […] The anti-CI-M6PR antibody (clone 2G11) and GBP were used as positive and negative controls, respectively.
(§2) Analysis of the binding kinetics was performed using an Octet Red96 (FortéBio) device with Streptavidin SA Biosensor tips (VWR 733-2145). Therefore, 1 mL of human domain₁₋₃His₆ (0.5 mg/mL in 50 mM MES, 150 mM NaCl, pH 6.5) was incubated at room temperature for 30 minutes with EZ-Link™ NHS-PEG4-Biotin (1 mg) (Thermo Fischer A39259) and NaHCO₃ (100 mM). Biotinylated human domain₁₋₃His₆ was purified using a Zeba spin desalting Column™ (7K MWCO, 2 mL, Thermo Fischer 89890) and 1 μg/mL was used for immobilization on the Streptavidin SA Biosensor tips. The loaded tips were dipped into a particular anti-CI-M6PR VHH solution, serially diluted in kinetics buffer (0.2M NaH₂PO₄, 0.1M Na⁺ citrate, 0.01% BSA, 0.002% Tween20, pH 7.4). This was followed by dissociation of the particular anti-CI-M6PR VHH in kinetics buffer of pH 7.4, followed by regeneration in Glycine (10 mM, pH 3) and neutralisation. Same cycle was repeated but the dissociation was performed at pH 7.0, 6.0, 5.0, 4.5 and 4.0. A reference well and reference sensors were subtracted from ligand sensors afterwards and Savitsky-Golay filtering was applied on the data. Fitting of the data was performed using a 1:1 model, grouped per pH of dissociation.

Assay [3] addresses T2, recombinant mouse domain 1-3His6 of CI-M6PR (mouse, UniProt Q07113 36-418).
T2 construct: Genbank NM_010515.2); Range includes the signal peptide; also called mDom1-3His6; mCI-M6PRD1-D3
The assay can be described thus: ELISA: coated mouse CI-M6PR Domain 1-3His6, serially diluted VHH, anti-VHH-HRP, TMB, Abs 450 nm; sigmoidal regression [table at the right]. How it is done:
FIGS. 5A-5B. Affinity of anti-CI-M6PR VHHs for recombinant mouse CI-M6PR Domain 1-3His₆ determined by ELISA. (FIG. 5A) Measurement for each of the 11 anti-CI-M6PR VHHs in serial dilution binding to the coated mouse antigen. Detection was performed using an anti-VHH antibody coupled to HRP, and measured as the absorbance of the TMB substrate at 450 nm, correlating to the amount of bound VHH as plotted at the Y-axis. The Log₁₀ concentrations of the serially diluted VHHs were plotted at the X-axis.
To evaluate the cross-reactivity of the anti-CI-M6PR nanobodies between the human and mouse CI-M6PR domain 1-3His₆ antigen, ELISA was performed with the eleven serially diluted anti-CI-M6PR nanobodies. […] By performing sigmoidal regression on the derived absorbance curves, half-maximal effective concentration (EC₅₀) values of each VHH were acquired, representing the required concentration to occupy 50% of the coated antigen. As a negative control, GBP was included in the assay.

Assay [4] deals with T1, recombinant human domain 1-3His6 of the …. The assay can be described thus: BLI exp 1, dissoc pH 7. How it is done:
as §1, §2

For assay [5] the target is unchanged. The assay can be described thus: BLI exp 1, dissoc pH 7.4. The procedure:
as §1, §2

Assay [6] has the same target. The assay can be described thus: BLI exp 1, dissoc pH 6. The procedure:
as §1, §2

T2 sequence (Q07113 other isoform, or with tags, fused parts or gaps): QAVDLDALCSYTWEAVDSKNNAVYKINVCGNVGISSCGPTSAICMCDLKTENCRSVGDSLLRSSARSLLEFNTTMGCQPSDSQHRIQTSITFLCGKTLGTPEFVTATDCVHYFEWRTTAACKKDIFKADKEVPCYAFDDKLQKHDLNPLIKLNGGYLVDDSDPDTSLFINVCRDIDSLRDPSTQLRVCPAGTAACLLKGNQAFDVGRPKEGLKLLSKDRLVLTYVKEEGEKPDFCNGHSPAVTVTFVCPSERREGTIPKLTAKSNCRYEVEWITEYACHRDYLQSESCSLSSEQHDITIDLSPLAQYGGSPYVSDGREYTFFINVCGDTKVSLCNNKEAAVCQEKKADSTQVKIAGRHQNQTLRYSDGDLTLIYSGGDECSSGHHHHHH

B1: anti-CI-M6PR VHH10 (VHH)
VHH: QVQLQESGGGSVQAGGSLRLSCAPAGRTFSRIRMGWFRQAPGKEREFVAAISSGGLSYYADSMKGRFTISRDNAKNTVLLQMNSLEPDDTAVYYCAAVLNDYIDDYVARNPTLYDYWGQGTQVTVSS
notes: His6-tagged; made in Pichia pastoris
Broadly, the EC50 is the concentration that produces a half-maximal response. For orientation: koff means the rate constant with which the complex falls apart. As a reminder, the kon is the rate constant with which the complex forms. Broadly, the Kd is the free concentration of one partner at which half of the binding sites on the other are occupied at equilibrium, for simple one-to-one binding. In the case of B1, the EC50 in assay [1] was 0.0657 nM; in assay [3] it was 1620 nM. The koff in assay [2] was 0.0106 s⁻¹; in assay [4], 0.00148 s⁻¹; in assay [5], 0.00177 s⁻¹; in assay [6], 0.00205 s⁻¹. The kon in assay [2] turned out to be 91100 M⁻¹ s⁻¹; in assay [4] it was 99300 M⁻¹ s⁻¹; in assay [5], 38100 M⁻¹ s⁻¹; in assay [6], 39100 M⁻¹ s⁻¹. In assay [5], the Kd came to 46.3 nM.

B2: anti-CI-M6PR VHH11 (VHH)
VHH: QVQLQESGGGLVQAGDSLKLSCTASGPTFSEITGGWFRQVPGKEREFVASISSTGITTYYTDSVKGRFTVSRDNAKNTMYLQMNSLKPEDTGVYYCAARSTSRSIAITVGYDYWGQGTQVTVSS
notes: as for B1
As for B2, the figures for the EC50 in assay [1] and in assay [3] were 0.249 nM and 330 nM, respectively. The Kd in assay [2] came to 113 nM; in assay [4], 20.3 nM; in assay [5], 41.4 nM; in assay [6], 34.2 nM. Further, the koff in assay [2] came to 0.0253 s⁻¹; in assay [4], 0.00394 s⁻¹; in assay [5], 0.00317 s⁻¹; in assay [6], 0.00665 s⁻¹. Also, the kon in assay [2] was 225000 M⁻¹ s⁻¹; in assay [4], 194000 M⁻¹ s⁻¹; in assay [5] it was 76700 M⁻¹ s⁻¹; in assay [6] it was 195000 M⁻¹ s⁻¹.
